{
  "source": "paper PMC12463132",
  "about": "(Advanced Science, 2025)",
  "target": "T1, Sec23a/Sec24a (lacking residues 1–340) (human, UniProt Q15436 1-765; O95486 341-1093)",
  "T1 construct": "Sec23a, human, full length (pFastBac1 vector); Sec24a, human, lacking residues 1-340; The results call the protein of the pull-downs 'Sec24a' or 'Sec24', the methods 'COPII protein'; also called COPII coat proteins Sec23a/Sec24a; COPII protein; source: Hi5 insect cells (baculovirus made in Sf9), purified (HisTrap, ion exchange, SEC)",
  "T1 sequence (Q15436 whole entry, chain 1 of 2, the tested form may be a part)": "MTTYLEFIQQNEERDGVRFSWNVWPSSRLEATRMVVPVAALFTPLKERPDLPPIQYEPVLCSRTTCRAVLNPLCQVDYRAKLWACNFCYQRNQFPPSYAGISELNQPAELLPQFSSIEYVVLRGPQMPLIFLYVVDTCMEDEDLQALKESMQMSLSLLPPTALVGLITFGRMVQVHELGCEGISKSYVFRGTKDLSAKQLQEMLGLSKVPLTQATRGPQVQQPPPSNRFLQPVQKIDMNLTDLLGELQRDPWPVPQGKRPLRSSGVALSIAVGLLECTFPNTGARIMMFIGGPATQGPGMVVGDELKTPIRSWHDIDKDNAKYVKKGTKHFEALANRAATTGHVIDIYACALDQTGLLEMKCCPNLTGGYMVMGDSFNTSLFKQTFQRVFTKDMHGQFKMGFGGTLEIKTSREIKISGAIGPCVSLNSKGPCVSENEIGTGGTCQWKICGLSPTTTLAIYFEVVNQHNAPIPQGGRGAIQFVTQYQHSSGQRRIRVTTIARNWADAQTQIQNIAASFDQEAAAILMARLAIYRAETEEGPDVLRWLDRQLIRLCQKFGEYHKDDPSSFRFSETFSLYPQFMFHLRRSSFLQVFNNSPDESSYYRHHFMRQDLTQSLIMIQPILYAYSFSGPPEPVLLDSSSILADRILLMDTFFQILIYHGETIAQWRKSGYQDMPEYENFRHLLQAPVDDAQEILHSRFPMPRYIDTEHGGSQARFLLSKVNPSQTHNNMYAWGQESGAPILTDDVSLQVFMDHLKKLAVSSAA",
  "T1 sequence (O95486 341-1093, chain 2 of 2)": "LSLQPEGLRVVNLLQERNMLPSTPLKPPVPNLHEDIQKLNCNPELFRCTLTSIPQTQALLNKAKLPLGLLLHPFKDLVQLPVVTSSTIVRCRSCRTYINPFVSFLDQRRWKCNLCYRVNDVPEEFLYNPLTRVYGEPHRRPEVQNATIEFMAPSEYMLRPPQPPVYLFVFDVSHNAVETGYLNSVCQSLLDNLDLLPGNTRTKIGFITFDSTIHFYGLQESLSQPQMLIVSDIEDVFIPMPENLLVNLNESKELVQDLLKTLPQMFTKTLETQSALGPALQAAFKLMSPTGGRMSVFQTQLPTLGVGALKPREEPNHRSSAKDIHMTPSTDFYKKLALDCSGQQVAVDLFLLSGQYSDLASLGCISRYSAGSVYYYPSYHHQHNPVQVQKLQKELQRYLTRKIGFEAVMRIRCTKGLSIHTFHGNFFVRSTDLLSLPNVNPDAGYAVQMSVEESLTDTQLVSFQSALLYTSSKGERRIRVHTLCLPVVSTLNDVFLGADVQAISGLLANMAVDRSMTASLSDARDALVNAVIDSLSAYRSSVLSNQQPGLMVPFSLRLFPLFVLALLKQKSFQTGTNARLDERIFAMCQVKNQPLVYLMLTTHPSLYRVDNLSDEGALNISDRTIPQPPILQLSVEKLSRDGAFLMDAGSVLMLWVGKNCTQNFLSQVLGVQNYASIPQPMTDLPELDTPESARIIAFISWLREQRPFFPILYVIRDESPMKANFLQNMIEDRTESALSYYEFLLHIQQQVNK",
  "test": "pull-down; competition: phosphorylated GST-STING CTT on glutathione Sepharose 4B beads, IRF3 with Sec24; 20 mM HEPES-Na pH 7.4, 200 mM NaCl, 4 mM DTT, 0.1% Triton X-100, 4 °C; SDS-PAGE",
  "details": "both partners purified",
  "note": "Ends that are not written are not given here.",
  "data": [
    {"binder": "QEEKEEVTVGSLKTSAVPSTSTMSQEPELLISGMEKPLPLRTDFS (domain or fragment, UniProt Q86WV6 335-379, looked up, also: GST-tagged, phosphorylated by TBK1, sites not given here, STING, human, C-terminal tail, residues 335-379; also called phosphorylated STING CTT; phosphorylated GST‐STING protein; source: phosphorylated in vitro by GST-tagged human TBK1, used directly; not shown: GST, N-terminal, kept)", "note": "[GST‐tagged human STING CTT (residue number: 335–379), phosphorylated]", "values": [
      {"measurement": "binding result", "result": "binds"}
    ]}
  ]
}
